Data taken from the array DNA melting data of Ke et al..

assay: melting temperature; melt of duplexes; conditions: sodium 0.0675 M; strand 1 µM

In order of falling Tm:
1. CGACGTGCTGGATGTGCTG+CAGCACATCCAGCACGTCG (((((((((((((((((((+)))))))))))))))))))  65.5 °C
2. CGACGTGCTACATGTGCTG+CAGCACATGTAGCACGTCG (((((((((((((((((((+)))))))))))))))))))  63.6 °C
3. CGACGTGCGGAATGTGCTG+CAGCACATGGAGCACGTCG ((((((((...((((((((+))))))))...))))))))  62.8 °C
4. CGACGTGCCGGATGTGCTG+CAGCACATCTGGCACGTCG (((((((((.(((((((((+))))))))).)))))))))  62.7 °C
5. CGACGTGCGATATGTGCTG+CAGCACATAGCGCACGTCG (((((((((.(((((((((+))))))))).)))))))))  61.3 °C
6. CGACGTGCCAGATGTGCTG+CAGCACATTTGGCACGTCG ((((((((((.((((((((+)))))))).))))))))))  59.3 °C
7. CGACGTGCCAGATGTGCTG+CAGCACATCCGGCACGTCG (((((((((.(((((((((+))))))))).)))))))))  59.2 °C
8. CGACGTGCATTATGTGCTG+CAGCACATGATGCACGTCG ((((((((((.((((((((+)))))))).))))))))))  58.1 °C
9. CGACGTGCGTGATGTGCTG+CAGCACATGACGCACGTCG ((((((((((.((((((((+)))))))).))))))))))  57.8 °C
10. CGACGTGCGGGATGTGCTG+CAGCACATCTAGCACGTCG ((((((((..(((((((((+)))))))))..))))))))  57.8 °C
11. CGACGTGCCAAATGTGCTG+CAGCACATGAGGCACGTCG (((((((((..((((((((+))))))))..)))))))))  57.3 °C
12. CGACGTGCCTGATGTGCTG+CAGCACATTGGGCACGTCG (((((((((..((((((((+))))))))..)))))))))  57.1 °C
13. CGACGTGCCATATGTGCTG+CAGCACATAAGGCACGTCG (((((((((.(((((((((+))))))))).)))))))))  56.9 °C
14. CGACGTGCTTGATGTGCTG+CAGCACATCGGGCACGTCG ((((((((..(((((((((+)))))))))..))))))))  56.8 °C
15. CGACGTGCGGAATGTGCTG+CAGCACATAGCGCACGTCG (((((((((..((((((((+))))))))..)))))))))  55.5 °C
16. CGACGTGCCGAATGTGCTG+CAGCACATCGAGCACGTCG ((((((((...((((((((+))))))))...))))))))  55.3 °C
17. CGACGTGCCACATGTGCTG+CAGCACATTGGGCACGTCG (((((((((..((((((((+))))))))..)))))))))  55 °C
18. CGACGTGCCGGATGTGCTG+CAGCACATCTAGCACGTCG ((((((((..(((((((((+)))))))))..))))))))  55 °C
19. CGACGTGCGTAATGTGCTG+CAGCACATCTAGCACGTCG ((((((((...((((((((+))))))))...))))))))  54.7 °C
20. CGACGTGCGTTATGTGCTG+CAGCACATTTCGCACGTCG (((((((((..((((((((+))))))))..)))))))))  54.4 °C
21. CGACGTGCAGCATGTGCTG+CAGCACATGGAGCACGTCG ((((((((..(((((((((+)))))))))..))))))))  54.1 °C
22. CGACGTGCGAAATGTGCTG+CAGCACATTCGGCACGTCG ((((((((..(((((((((+)))))))))..))))))))  53.7 °C
23. CGACGTGCACAATGTGCTG+CAGCACATAGGGCACGTCG ((((((((.(.((((((((+)))))))).).))))))))  53 °C
24. CGACGTGCGCCATGTGCTG+CAGCACATTGAGCACGTCG ((((((((.(.((((((((+)))))))).).))))))))  52.6 °C
25. CGACGTGCAGAATGTGCTG+CAGCACATGGTGCACGTCG (((((((((..((((((((+))))))))..)))))))))  52.6 °C
26. CGACGTGCTGCATGTGCTG+CAGCACATCGAGCACGTCG (((((((((..((((((((+))))))))..)))))))))  52.5 °C
27. CGACGTGCGCAATGTGCTG+CAGCACATTCGGCACGTCG ((((((((..(((((((((+)))))))))..))))))))  52.5 °C
28. CGACGTGCCTCATGTGCTG+CAGCACATACGGCACGTCG (((((((((..((((((((+))))))))..)))))))))  52.4 °C
29. CGACGTGCGCAATGTGCTG+CAGCACATTCTGCACGTCG ((((((((..(((((((((+)))))))))..))))))))  52.3 °C
30. CGACGTGCATTATGTGCTG+CAGCACATGTTGCACGTCG (((((((((..((((((((+))))))))..)))))))))  52.2 °C
31. CGACGTGCTTCATGTGCTG+CAGCACATGTCGCACGTCG ((((((((..(((((((((+)))))))))..))))))))  52.2 °C
32. CGACGTGCTCTATGTGCTG+CAGCACATAAGGCACGTCG ((((((((..(((((((((+)))))))))..))))))))  52.2 °C
33. CGACGTGCGGGATGTGCTG+CAGCACATGAGGCACGTCG ((((((((...((((((((+))))))))...))))))))  51.9 °C
34. CGACGTGCGTGATGTGCTG+CAGCACATTCTGCACGTCG ((((((((...((((((((+))))))))...))))))))  51.8 °C
35. CGACGTGCGCGATGTGCTG+CAGCACATTCAGCACGTCG ((((((((...((((((((+))))))))...))))))))  51.7 °C
36. CGACGTGCTCTATGTGCTG+CAGCACATGGCGCACGTCG ((((((((.(.((((((((+)))))))).).))))))))  51.6 °C
37. CGACGTGCTTTATGTGCTG+CAGCACATATGGCACGTCG ((((((((..(((((((((+)))))))))..))))))))  51.6 °C
38. CGACGTGCCATATGTGCTG+CAGCACATTGCGCACGTCG ((((((((...((((((((+))))))))...))))))))  51.5 °C
39. CGACGTGCGCTATGTGCTG+CAGCACATGCTGCACGTCG ((((((((...((((((((+))))))))...))))))))  51.5 °C
40. CGACGTGCTCAATGTGCTG+CAGCACATTCGGCACGTCG ((((((((..(((((((((+)))))))))..))))))))  51.2 °C
41. CGACGTGCAATATGTGCTG+CAGCACATGGTGCACGTCG (((((((((..((((((((+))))))))..)))))))))  51 °C
42. CGACGTGCAAGATGTGCTG+CAGCACATTGTGCACGTCG (((((((((..((((((((+))))))))..)))))))))  50.6 °C
43. CGACGTGCTTCATGTGCTG+CAGCACATAATGCACGTCG ((((((((.(.((((((((+)))))))).).))))))))  50.4 °C
44. CGACGTGCTTCATGTGCTG+CAGCACATCTAGCACGTCG (((((((((..((((((((+))))))))..)))))))))  50.3 °C
45. CGACGTGCTGGATGTGCTG+CAGCACATGTCGCACGTCG ((((((((...((((((((+))))))))...))))))))  50.3 °C
46. CGACGTGCCTGATGTGCTG+CAGCACATTATGCACGTCG ((((((((.(.((((((((+)))))))).).))))))))  50.2 °C
47. CGACGTGCCCCATGTGCTG+CAGCACATTGAGCACGTCG ((((((((.(.((((((((+)))))))).).))))))))  50.1 °C
48. CGACGTGCCGGATGTGCTG+CAGCACATATAGCACGTCG ((((((((...((((((((+))))))))...))))))))  49.9 °C
49. CGACGTGCTTTATGTGCTG+CAGCACATTTTGCACGTCG ((((((((...((((((((+))))))))...))))))))  49.5 °C
50. CGACGTGCTACATGTGCTG+CAGCACATCGGGCACGTCG ((((((((...((((((((+))))))))...))))))))  49.5 °C
51. CGACGTGCGTAATGTGCTG+CAGCACATCGGGCACGTCG ((((((((...((((((((+))))))))...))))))))  49.4 °C
52. CGACGTGCAGCATGTGCTG+CAGCACATACGGCACGTCG ((((((((.(.((((((((+)))))))).).))))))))  49.3 °C
53. CGACGTGCCATATGTGCTG+CAGCACATACTGCACGTCG ((((((((..(((((((((+)))))))))..))))))))  49.3 °C
54. CGACGTGCCAGATGTGCTG+CAGCACATATCGCACGTCG ((((((((.(.((((((((+)))))))).).))))))))  49.1 °C
55. CGACGTGCAACATGTGCTG+CAGCACATAGAGCACGTCG ((((((((...((((((((+))))))))...))))))))  48.9 °C
56. CGACGTGCCCAATGTGCTG+CAGCACATCTAGCACGTCG ((((((((...((((((((+))))))))...))))))))  48.8 °C
57. CGACGTGCCCTATGTGCTG+CAGCACATTAAGCACGTCG ((((((((...((((((((+))))))))...))))))))  48.7 °C
58. CGACGTGCTCAATGTGCTG+CAGCACATGACGCACGTCG ((((((((...((((((((+))))))))...))))))))  48.7 °C
59. CGACGTGCGTTATGTGCTG+CAGCACATCGGGCACGTCG ((((((((...((((((((+))))))))...))))))))  48.6 °C
60. CGACGTGCACAATGTGCTG+CAGCACATAGAGCACGTCG ((((((((.(.((((((((+)))))))).).))))))))  48.4 °C
61. CGACGTGCCCGATGTGCTG+CAGCACATTATGCACGTCG ((((((((...((((((((+))))))))...))))))))  48.4 °C
62. CGACGTGCATAATGTGCTG+CAGCACATCCGGCACGTCG ((((((((...((((((((+))))))))...))))))))  48.3 °C
63. CGACGTGCCTTATGTGCTG+CAGCACATGTCGCACGTCG ((((((((...((((((((+))))))))...))))))))  47.8 °C
64. CGACGTGCTTTATGTGCTG+CAGCACATTTCGCACGTCG ((((((((...((((((((+))))))))...))))))))  47.7 °C
65. CGACGTGCCATATGTGCTG+CAGCACATCACGCACGTCG ((((((((...((((((((+))))))))...))))))))  47.6 °C
66. CGACGTGCCTCATGTGCTG+CAGCACATTTAGCACGTCG ((((((((...((((((((+))))))))...))))))))  47.5 °C
67. CGACGTGCACAATGTGCTG+CAGCACATCCTGCACGTCG (((((((((..((((((((+))))))))..)))))))))  47.1 °C
68. CGACGTGCTTTATGTGCTG+CAGCACATTGCGCACGTCG ((((((((...((((((((+))))))))...))))))))  46.4 °C
69. CGACGTGCCATATGTGCTG+CAGCACATGACGCACGTCG ((((((((...((((((((+))))))))...))))))))  45.5 °C
70. CGACGTGCAGCATGTGCTG+CAGCACATTTGGCACGTCG ((((((((...((((((((+))))))))...))))))))  45.4 °C
71. CGACGTGCACTATGTGCTG+CAGCACATTCAGCACGTCG ((((((((...((((((((+))))))))...))))))))  43.4 °C
72. CGACGTGCACCATGTGCTG+CAGCACATCTCGCACGTCG ((((((((...((((((((+))))))))...))))))))  41.8 °C
